# Experimental data as given in paper PMC4339722, “Analysis of the Link between the Redox State and Enzymatic Activity of the HtrA (DegP) Protein from Escherichia coli” (PLoS ONE, 2015).
# B1: HtrA-S210A (oxidized control variant, as used in cross-linking and SEC) (enzyme, Escherichia coli, UniProt P0C0V0 27-474, looked up)
# chain: AETSSATTAQQMPSLAPMLEKVMPSVVSINVEGSTTVNTPRMPRNFQQFFGDDSPFCQEGSPFQSSPFCQGGQGGNGGGQQQKFMALGSGVIIDADKGYVVTNNHVVDNATVIKVQLSDGRKFDAKMVGKDPRSDIALIQIQNPKNLTAIKMADSDALRVGDYTVAIGNPFGLGETVTSGIVSALGRSGLNAENYENFIQTDAAINRGNAGGALVNLNGELIGINTAILAPDGGNIGIGFAIPSNMVKNLTSQMVEYGQVKRGELGIMGTELNSELAKAMKVDAQRGAFVSQVLPNSSAAKAGIKAGDVITSLNGKPISSFAALRAQVGTMPVGSKLTLGLLRDGKQVNVNLELQQSSQNQVDSSSIFNGIEGAEMSNKGKDQGVVVNNVKTGTPAAQIGLKKGDVIIGANQQAVKNIAELRKVLDSKPSVLALNIQRGDSTIYLLMQ
# modifications: disulfide bond Cys57-Cys69 (oxidized)
# notes: HtrA (DegP) serine protease, Escherichia coli; polypeptide chain of 448 residues as printed; also called oxidized control (S210A); control HtrA
# Molecular target: the molecule itself
# Assay: cross-linking + SEC; with 2.5-, 5- or 10-fold molar excess of the 22-peptide …; HtrA variants 10 μM monomer, 15 min 37°C then 10 h 4°C in 20 mM HEPES-NaOH pH 8.0, 100 mM NaCl; BS^3 0.45 mM, 30 min room temperature; Superose 12 10/300 GL, 25°C
protein,measurement,value
B1,stoichiometry N,12
